The target in experiment [1] is human thrombin (human). The experiment can be described thus: enzyme inhibition kinetics (amidolytic activity); thrombin (36.6 nM; 3.0 µl, 10 NIH/ml) with chromogenic substrate T1637 or FXa (0.13 µM) with F3301, lunathrombase 0-0.4 µM; Michaelis-Menten fit; competitive model for thrombin, non-competitive model for FXa.
In experiment [2] the target is FXa. The description is as above.
Experiment [3] has as its target human thrombin (human). The experiment can be described thus: other fluorescence titration; thrombin, FXa or fibrinogen (0.2 µM each) incubated with lunathrombase (0.2-1.0 µM in the methods, 0.2-1.4 µM in the legend) for 3 min at room temperature; excitation 280 nm, emission 300-425 nm; one site saturation binding curve.
Experiment [4] has as its target FXa. Described as above.
The target in experiment [5] is human fibrinogen (human) (UniProt P02671). The experiment is described as above.
Experiment [6] has as its target FXa.

For one substance, Ki, Kd and inhibition of prothrombin (1.4 µM) activation by FXa (0.13 µM) pre-incubated with lunathrombase (0.2 µM), SDS-PAGE results are on record in publication PMC5906637.

A word on the Ki: it is the equilibrium dissociation constant of an inhibitor or competing ligand from its target. The Kd is the free concentration of one partner at which half of the binding sites on the other are occupied at equilibrium, for simple one-to-one binding. Low values mean tighter binding, high ones weaker binding. Turning to lunathrombase (enzyme), the Ki in experiment [1] turned out to be 0.0269 µM; in experiment [2], 0.0103 µM. For the same substance, the Kd was determined as 0.249 µM in experiment [3], 1.91 µM in experiment [4] and 0.552 µM in experiment [5]. Besides, in experiment [6], the inhibition of prothrombin (1.4 µM) activation by FXa (0.13 µM) pre-incubated with lunathrombase (0.2 µM), SDS-PAGE came out at 100%.
